# According to patent publication US5866124:
# Target: murine anti-HMW-MAA monoclonal antibody 763.74
# Assay: ELISA on plates coated with MAb 763.74, culture supernatant, detected with alkaline phosphatase-conjugated anti-human γ
binder,measurement,value
"chimeric antiidiotypic monoclonal antibody MK2-CHγ1 (antibody, V domains shown) VH: LQESGGGLVQPGGSRKLSCAASGFTFSSFGMHWVRQAPEKGLEWVAYISSDSSNIYYADTVKGRFTISRDNPKNTLFLQMTSLRSEDTAMYYCARSNYVGYHVRWYFDVWGQGTTVT VL: QLTQSPASLAVSLGQRVTISCRASESVEYYGSSLMQWYQQKPGQPPKLLIYAASNVESGVPARFSGSGSGTDFSLNIHPVEEDDIAMYFCQQSRKIPYTFGGGTKLEI",A405,0.78 A405
